In general, IC50 refers to the point on the concentration scale where inhibition reaches its midpoint.

For this experiment, the target named is Gastrin-Releasing Peptide Receptor (human (endogenous in PC3)) (UniProt P30550). The experiment can be described thus: radioligand binding; displacement of the small-molecule tracer [18F]PD410 from PC3 cells by increasing concentrations of the peptide.
Gastrin-Releasing Peptide Receptor (human (endogenous in PC3)), sequence (P30550 whole entry): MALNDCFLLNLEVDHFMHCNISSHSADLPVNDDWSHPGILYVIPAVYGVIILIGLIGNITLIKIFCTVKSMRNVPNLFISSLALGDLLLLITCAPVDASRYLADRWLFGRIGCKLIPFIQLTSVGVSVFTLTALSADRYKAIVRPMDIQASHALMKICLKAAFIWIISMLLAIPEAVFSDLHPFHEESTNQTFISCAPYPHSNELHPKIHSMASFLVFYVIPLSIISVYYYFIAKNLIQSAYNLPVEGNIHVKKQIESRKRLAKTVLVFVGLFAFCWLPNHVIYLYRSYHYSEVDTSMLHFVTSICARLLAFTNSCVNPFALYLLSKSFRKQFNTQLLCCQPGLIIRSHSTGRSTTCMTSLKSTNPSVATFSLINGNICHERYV

The substance Glu[Aca-BN(7-14)]2 (peptide) had an IC50 of 0.1 nM.

These data come from article PMC5843810, “18th European Symposium on Radiopharmacy and Radiopharmaceuticals” (EJNMMI Radiopharmacy and Chemistry, 2016).
